Measurements reported in publication PMC4268710.

Target: OM14 assembled in the outer membrane of isolated mitochondria (S. cerevisiae (endogenous in yeast)) (UniProt P38325)
Assay: co-sedimentation; 10 μg purified yeast ribosomes with 25 μg highly purified mitochondria (OM14^+ or OM14Δ, from NAC-deleted cells), 5 min at room temperature in MA buffer, 10,000 g; Rpl3 in the pellet normalised to Tom20

UniProt P38325, sequence (P38325 whole entry): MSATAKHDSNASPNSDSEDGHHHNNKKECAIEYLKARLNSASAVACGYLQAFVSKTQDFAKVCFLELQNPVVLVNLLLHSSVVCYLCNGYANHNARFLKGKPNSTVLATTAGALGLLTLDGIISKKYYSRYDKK

fold ribosomal association, mitochondria with OM14 over OM14Δ mitochondria: > 2 fold
Substance: yeast cytosolic ribosomes (from UniProt P14126 1-387) (complex)
